# Assay results from patent publication US20040043378A1.
# B1: P/CAF bromodomain (residues 719-832 of human p300/CBP-associated factor), wild-type, Q92831 719-832 (protein)
# chain: SKEPRDPDQLYSTLKSILQQVKSHQSAWPFMEPVKRTEAPGYYEVIRFPMDLKTMSERLKNRYYVSKKLFMADLQRVFTNCKEYNAAESEYYKCANILEKFFFSKIKEAGLIDK
# B2: bromodomain of P/CAF (residues 719-832 of SEQ ID NO:2), Q92831 719-832 (protein)
# chain: B1 chain
# Experiments:
# [1] = biological target: lysine-acetylated histone H4 peptide SGRGKGG-AcK-GLGK (Lys8 acetylated); test: NMR titration, amide chemical shift changes in 15N-HSQC spectra against ligand concentration
# [2] = biological target: histone H4 AcK16 peptide …-AcK-RHRK (SEQ ID NO:59); test: NMR 2D 1H-15N HSQC titration; 'binds weakly'
# Chain of histone H4 AcK16 peptide …-AcK-RHRK (SEQ ID NO:59) (peptide, as listed by the source): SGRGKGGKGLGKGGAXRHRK
Binder,Kd [1] [µM],Kd [2] [µM]
B1,346,
B2,,< 300
